Results as given in article PMC11749891 (Nature structural & molecular biology, 2022).
* marks the point of attachment. Biotin = O=C1N[C@H]2[C@H](CS[C@H]2CCCCC(=O)*)N1; Ahx = NCCCCCC(=O)O

T1: Recombinant GFP-tagged Sov core NTD (aa 14–90), NTD Δ-SIMs (D. melanogaster, UniProt Q9W3W6 14-90)
T1 sequence (looked up): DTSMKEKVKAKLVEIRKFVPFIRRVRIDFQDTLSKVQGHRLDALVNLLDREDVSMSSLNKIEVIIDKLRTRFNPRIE

T2: C-terminal His tagged Sov NTD (aa 14–90) (D. melanogaster, UniProt Q9W3W6 14-90)
T2 sequence (looked up): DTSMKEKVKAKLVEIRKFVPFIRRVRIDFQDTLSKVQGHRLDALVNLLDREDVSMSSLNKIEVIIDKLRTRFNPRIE


Tests used:
[1] = biological target: T1, Recombinant GFP-tagged Sov core NTD (aa …); experiment: pull-down
[2] = biological target: T2, C-terminal His tagged Sov NTD (aa 14–90); experiment: ITC

Row | binding result [1] | stoichiometry N [2] | Binder
1 | binds |  | {Biotin-Ahx}-KMEPKIKEDADNAMLDSLLADPFENNS-NH2 (peptide, UniProt Q9W2H9 82-108, looked up, SMILES CC[C@H](C)[C@H](NC(=O)[C@H](CCCCN)NC(=O)[C@@H]1CCCN1C(=O)[C@H](CCC(=O)O)NC(=O)[C@H](CCSC)NC(=O)[C@H](CCCCN)NC(=O)CCCCCNC(=O)CCCC[C@@H]1SC[C@@H]2NC(=O)N[C@@H]21)C(=O)N[C@@H](CCCCN)C(=O)N[C@@H](CCC(=O)O)C(=O)N[C@@H](CC(=O)O)C(=O)N[C@@H](C)C(=O)N[C@@H](CC(=O)O)C(=O)N[C@@H](CC(N)=O)C(=O)N[C@@H](C)C(=O)N[C@@H](CCSC)C(=O)N[C@@H](CC(C)C)C(=O)N[C@@H](CC(=O)O)C(=O)N[C@@H](CO)C(=O)N[C@@H](CC(C)C)C(=O)N[C@@H](CC(C)C)C(=O)N[C@@H](C)C(=O)N[C@@H](CC(=O)O)C(=O)N1CCC[C@H]1C(=O)N[C@@H](Cc1ccccc1)C(=O)N[C@@H](CCC(=O)O)C(=O)N[C@@H](CC(N)=O)C(=O)N[C@@H](CC(N)=O)C(=O)N[C@@H](CO)C(N)=O) [Panx LxxLL peptide (aa 82–108), wildtype, biotinylated]
2 |  | 1.05 ± 0.03 | KMEPKIKEDADNAMLDSLLADPFENNS (peptide, UniProt Q9W2H9 82-108, looked up) [His-SUMO tagged Panx LxxLL peptide (aa 82–108), wildtype]
